Consider 3 molecules from patent US20110091992A1 (AstraZeneca / MedImmune, published 2011).

For assay [1], the target named is Human CD16 (V158 allotype), soluble (human) (UniProt P08637). Briefly: SPR (BIAcore 3000), Fc amine-coupled to CM5 chip, soluble CD16 V158 at 1 nM-1.6 µM, steady-state isotherm fit, 25 C. (In SPR one partner is held on a chip, and binding of the other changes the refractive index at the surface.)
The target in assay [2] is T1, Human FcγRIIA (human, UniProt P12318 34-217, limits assumed).
T1 construct: The construct is not described
T1 sequence (looked up): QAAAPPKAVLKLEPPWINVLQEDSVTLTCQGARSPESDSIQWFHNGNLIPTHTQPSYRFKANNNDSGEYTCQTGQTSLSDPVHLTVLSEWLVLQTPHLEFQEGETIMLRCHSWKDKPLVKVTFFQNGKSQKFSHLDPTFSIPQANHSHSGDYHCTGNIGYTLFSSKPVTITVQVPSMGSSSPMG
The experiment in a line: SPR (BIAcore 3000), immobilised Fc/Mut3, human FcγRIIA injected at 8 µM.

For a further assay, the target named is T2, Human FcγRIIB (human, UniProt P31994 43-217, limits assumed).
T2 construct: The construct is not described
T2 sequence (looked up): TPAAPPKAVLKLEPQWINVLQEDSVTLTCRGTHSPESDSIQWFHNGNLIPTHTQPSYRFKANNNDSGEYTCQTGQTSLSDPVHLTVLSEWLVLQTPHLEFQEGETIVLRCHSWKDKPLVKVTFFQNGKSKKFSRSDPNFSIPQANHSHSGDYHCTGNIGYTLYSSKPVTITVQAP
The experiment in a line: SPR (BIAcore 3000), immobilised Fc/Mut3, human FcγRIIB injected at 8 µM.

Assay [3] deals with T1, Human FcγRIIA. Briefly: SPR (BIAcore 3000), immobilised Fc/Mut2, human FcγRIIA injected at 8 µM.

Chain of Human CD16 (V158 allotype), soluble (human) (P08637 17-208 F176V): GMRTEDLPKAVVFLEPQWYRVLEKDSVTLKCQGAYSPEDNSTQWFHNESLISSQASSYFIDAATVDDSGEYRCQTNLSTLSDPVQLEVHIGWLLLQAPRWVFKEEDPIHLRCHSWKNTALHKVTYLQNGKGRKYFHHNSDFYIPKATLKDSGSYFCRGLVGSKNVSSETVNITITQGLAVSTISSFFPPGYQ

For “Unmutated human Fc (from UniProt P0DOX5 225-449)”, in assay [1], the Kd worked out at 157 nM.

B1: Fc/Mut3 (other)
chain: THTCPPCPAPELLGGPSVFLFPPKPKDTLMISRTPEVTCVVVDVSHEDPEVKFNWYVDGVEVHNAKTKPRENSTVVSVLTVLHQDWLNGKEYKCKVSNKALPAPIEKTISKAKGQPREPQVYTLPPSREEMTKNQVSLTCLVKGFYPSDIAVEWESNGQPENNYKTTPPVLDSDGSFFLYSKLTVDKSRWQQGNVFSCSVMHEALHNHYTQKSLSLSPGK
notes: It was made in the same expression construct as the unmutated human Fc and expressed in HEK 293 cells
With B1, the binding result in the assay with Human FcγRIIA [2] and with Human FcγRIIB was “no binding (tested: 8 µM)” in each case.

B2: Fc/Mut2 (other)
chain: THTCPPCPAPELLGGPSVFLFPPKPKDTLMISRTPEVTCVVVDVSHEDPEVKFNWYVDGVEVHNAKTKPRENSTYRVVSVLTVLHQDWLNGKEYKCKVSNKALPAPIEKTISKAKGQPREPQVYTLPPSREEMTKNQVSLTCLVKGFYPSDIAVEWESNGQPENNYKTTPPVLDSDGSFFLYSKLTVDKSRWQQGNVFSCSVMHEALHNHYTQKSLSLSPGK
notes: as for B1
B2: the binding result with Human FcγRIIA [3] is “no binding (tested: 8 µM)”.

The Kd is the free concentration of one partner at which half of the binding sites on the other are occupied at equilibrium, for simple one-to-one binding. A high value points to lower affinity.
